Data: paper PMC7327177
“And” between values parts separate entries of the source, which are not always exact repeats. Equal values may be shown once.

Key:
[1] = molecular target: Heme A synthase from Aquifex aeolicus (Aquifex aeolicus strain VF5) (UniProt O66543); test: native MS; LILBID-MS, AaHAS 2 mg/ml, in the presence of 150 mM NaCl, harsh laser mode, negative-ion mode
[2] = molecular target: Heme A synthase from Aquifex aeolicus (Aquifex aeolicus strain VF5) (UniProt O66543); test: SEC-MALS; 150 μl AaHAS at ~2 mg/ml, Superdex 200 10/300 GL, 20 mM Tris-HCl pH 7.4, 150 mM NaCl, 0.15% DM, 4°C
[3] = molecular target: Heme A synthase from Aquifex aeolicus (Aquifex aeolicus strain VF5) (UniProt O66543); test: native MS; LILBID-MS, additionally desalted AaHAS (without NaCl; 20 mM Tris-HCl pH 7.4, 0.15% DM), harsh laser mode, negative-ion mode
[4] = molecular target: Heme A synthase from Aquifex aeolicus (Aquifex aeolicus strain VF5) (UniProt O66543); test: native gel or EMSA; BN-PAGE, Novex 4 to 16% bis-Tris gel, purified AaHAS in DM; band at about 200 kDa, conversion factor 1.8 gives 110 kDa
[5] = molecular target: Heme A synthase from Aquifex aeolicus (Aquifex aeolicus strain VF5) (UniProt O66543); test: cross-linking; 0.5/3.5 mM BS3 or 0.5 mM DSS, room temperature, 30 min, quenched with 50 mM Tris-HCl pH 7.5, then 90°C for 10 min and SDS-PAGE
[6] = molecular target: Heme A synthase from Aquifex aeolicus (Aquifex aeolicus strain VF5) (UniProt O66543); test: cryo-EM structure; single-particle cryo-EM of purified AaHAS (2.5 mg/ml) in DM; map at 4.2 Å with C3 symmetry, 4.6 Å without applied symmetry
[7] = molecular target: Heme A synthase from Aquifex aeolicus (Aquifex aeolicus strain VF5) (UniProt O66543); test: SDS-PAGE + MALDI-TOF MS; purified AaHAS on 4 to 12% bis-Tris NuPAGE; incubated with 10 mM DTT at room temperature or 70°C for 10 min; masses of the two bands by MALDI-TOF MS (data not shown)

- stoichiometry N [1]: 3
- stoichiometry N [2]: 3
- stoichiometry N [3]: 2 and 3
- stoichiometry N [4]: 3
- stoichiometry N [5]: 2 and 3
- stoichiometry N [6]: 3
- stoichiometry N [7]: 3
Substance: Heme A synthase from Aquifex aeolicus (from UniProt O66543 2-296) (enzyme)
